Source: paper PMC11371216, “Structural insight into the DNMT1 reaction cycle by cryo-electron microscopy”

Biological target: DNMT1 (human, UniProt P26358 1-1616)
Experiment: EMSA; SAM 20-fold excess + GSK3852279B 5-fold excess; no substantial change in binding; EMSA: 25 mM Tris-HCl pH 7.5, 40 mM NaCl, 20% glycerol, 1 mM DTT, 0.5 mM MgCl2, overnight at room temperature; covalent assay: 25 mM Tris-HCl pH 7.5, 20 mM KCl
Details: protein: recombinant; tags: N-terminal Flag-6xHis-TEV site; blunt

DNMT1, sequence (P26358 whole entry): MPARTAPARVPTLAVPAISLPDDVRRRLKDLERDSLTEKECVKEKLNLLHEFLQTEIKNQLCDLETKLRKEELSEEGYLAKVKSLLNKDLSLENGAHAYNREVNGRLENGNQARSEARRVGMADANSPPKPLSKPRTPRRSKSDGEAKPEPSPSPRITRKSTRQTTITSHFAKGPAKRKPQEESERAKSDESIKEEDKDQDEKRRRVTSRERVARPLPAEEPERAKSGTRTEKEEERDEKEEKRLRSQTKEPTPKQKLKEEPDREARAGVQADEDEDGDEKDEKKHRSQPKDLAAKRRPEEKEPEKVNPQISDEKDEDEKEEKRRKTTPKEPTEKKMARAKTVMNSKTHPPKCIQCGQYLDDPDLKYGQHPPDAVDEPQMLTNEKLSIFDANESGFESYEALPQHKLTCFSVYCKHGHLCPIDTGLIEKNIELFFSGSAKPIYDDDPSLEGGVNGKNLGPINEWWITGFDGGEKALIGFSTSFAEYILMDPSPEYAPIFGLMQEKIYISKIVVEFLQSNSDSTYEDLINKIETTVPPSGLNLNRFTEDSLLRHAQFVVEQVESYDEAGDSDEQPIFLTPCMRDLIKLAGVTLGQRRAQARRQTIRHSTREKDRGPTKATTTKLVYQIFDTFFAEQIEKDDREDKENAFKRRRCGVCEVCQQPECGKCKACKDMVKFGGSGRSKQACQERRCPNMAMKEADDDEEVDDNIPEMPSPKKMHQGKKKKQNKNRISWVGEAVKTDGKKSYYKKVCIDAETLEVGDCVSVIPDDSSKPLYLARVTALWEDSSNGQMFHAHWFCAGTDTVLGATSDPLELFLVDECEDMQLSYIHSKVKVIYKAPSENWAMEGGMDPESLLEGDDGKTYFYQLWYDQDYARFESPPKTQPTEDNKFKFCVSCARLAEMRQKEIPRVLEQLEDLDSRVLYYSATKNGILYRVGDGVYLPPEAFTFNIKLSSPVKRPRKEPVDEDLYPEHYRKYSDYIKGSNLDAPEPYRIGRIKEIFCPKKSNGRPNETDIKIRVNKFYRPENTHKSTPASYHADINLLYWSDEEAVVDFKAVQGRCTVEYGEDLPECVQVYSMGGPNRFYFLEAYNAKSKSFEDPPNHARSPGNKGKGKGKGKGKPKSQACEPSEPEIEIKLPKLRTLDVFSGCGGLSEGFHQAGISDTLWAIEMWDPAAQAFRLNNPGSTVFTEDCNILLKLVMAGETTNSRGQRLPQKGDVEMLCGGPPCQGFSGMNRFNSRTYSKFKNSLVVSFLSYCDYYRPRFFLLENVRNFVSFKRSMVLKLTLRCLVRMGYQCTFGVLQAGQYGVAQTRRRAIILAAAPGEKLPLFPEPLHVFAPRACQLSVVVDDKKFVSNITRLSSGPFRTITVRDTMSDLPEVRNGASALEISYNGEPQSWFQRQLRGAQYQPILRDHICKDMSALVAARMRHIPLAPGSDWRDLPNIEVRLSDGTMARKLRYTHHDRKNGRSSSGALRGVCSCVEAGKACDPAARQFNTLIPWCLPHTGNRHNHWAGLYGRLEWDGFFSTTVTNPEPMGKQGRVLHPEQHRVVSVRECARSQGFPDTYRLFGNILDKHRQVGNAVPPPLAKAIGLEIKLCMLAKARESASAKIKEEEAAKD

B1: 26 bp hemi-methylated DNA (dsDNA)
DNA 1: TGGAGTCGAGGCCGCCTGCGCAGGAC
DNA 2: GTCCTGCGCAGGCGGCCTCGACTCCA
modifications: 5-methyl-dC at position 13 of strand 1
B1: binds.
